Measurements: patent US6403087 (Biogen, dated 2002)

T1: soluble human LT-α1/β2 ligand (hLT-α1/β2) (human, UniProt P01374 35-205; Q06643 49-244, limits assumed)
T1 sequence (looked up) 1: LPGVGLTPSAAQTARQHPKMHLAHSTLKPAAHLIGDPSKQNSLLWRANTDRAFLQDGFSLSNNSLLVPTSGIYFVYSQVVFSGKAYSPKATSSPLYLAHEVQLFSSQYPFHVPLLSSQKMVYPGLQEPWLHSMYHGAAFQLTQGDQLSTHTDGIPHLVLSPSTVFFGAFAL
T1 sequence (looked up) 2: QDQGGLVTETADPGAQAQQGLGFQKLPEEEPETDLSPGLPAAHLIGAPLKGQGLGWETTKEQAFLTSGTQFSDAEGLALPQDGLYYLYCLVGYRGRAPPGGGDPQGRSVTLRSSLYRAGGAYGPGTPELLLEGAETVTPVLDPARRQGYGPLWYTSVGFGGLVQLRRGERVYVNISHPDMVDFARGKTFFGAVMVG

T2: hLT-α (human, UniProt P01374 35-205, limits assumed)
T2 sequence (looked up): T1 sequence (looked up) 1

B1: soluble TNF-R fusion protein (p55-TNF-R-Fc) (Fc fusion, UniProt P19438 30-211, looked up, not shown: a dimerising Fc or GST)
chain: LVPHLGDREKRDSVCPQGKYIHPQNNSICCTKCHKGTYLYNDCPGPGQDTDCRECESGSFTASENHLRHCLSCSKCRKEMGQVEISSCTVDRDTVCGCRKNQYRHYWSENLFQCFNCSLCLNGTVHLSCQEKQNTVCTCHAGFFLRENECVSCSNCKKSLECTKLCLPQIENVKGTEDSGTT
B2: soluble human LT-β receptor-immunoglobulin Fc fusion protein (hLT-β-R-Fc) (Fc fusion, not shown: a dimerising Fc or GST)
chain: QAVPPYASENQTCRDQEKEYYEPQHRICCSRCPPGTYVSAKCSRIRDTVCATCAENSYNEHWNYLTICQLCRPCDPVMGLEEIAPCTSKRKTQCRCQPGMFCAAWALECTHCELLSDCPPGTEAELKDEVGKGNNHCVPCKAGHFQNTSSPSARCQPHTRCENQGLVEAAPGTAQSDTTCKNPLEPLPPEMSGT

How the values were obtained:
Test in all cases: cell-based or functional assay
[1] = target: T1, soluble human LT-α1/β2 ligand …
hLT-α = target: T2, hLT-α
hTNF = hTNF (human, UniProt P01375 77-233)
hTNF, sequence (P01375 77-233 limits assumed): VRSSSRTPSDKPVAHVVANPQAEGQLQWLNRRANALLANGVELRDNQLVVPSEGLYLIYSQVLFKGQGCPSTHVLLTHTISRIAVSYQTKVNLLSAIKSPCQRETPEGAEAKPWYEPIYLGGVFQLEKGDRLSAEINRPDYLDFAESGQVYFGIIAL

| Binder | Concentration of Cytotoxic Agent (ng/ml) Resulting in 50% Growth Inhibition of HT29 cells, in the presence of 5 µg/ml p55-TNF-R-Fc [1] [ng/mL] | Concentration of Cytotoxic Agent (ng/ml) Resulting in 50% Growth Inhibition of HT29 cells, in the presence of 5 µg/ml p55-TNF-R-Fc (hLT-α) [ng/mL] | Concentration of Cytotoxic Agent (ng/ml) Resulting in 50% Growth Inhibition of HT29 cells, in the presence of 5 µg/ml LT-β-R-Fc [1] [ng/mL] | Concentration of Cytotoxic Agent (ng/ml) Resulting in 50% Growth Inhibition of HT29 cells, in the presence of 5 µg/ml LT-β-R-Fc (hTNF) [ng/mL] | Concentration of Cytotoxic Agent (ng/ml) Resulting in 50% Growth Inhibition of HT29 cells, in the presence of 5 µg/ml LT-β-R-Fc (hLT-α) [ng/mL] |
| --- | --- | --- | --- | --- | --- |
| B1 | 5 | > 1000 | – | – | – |
| B2 | – | – | > 200 | 0.08 | 3 |
